Laboratory results from article PMC10360031 (ACS Applied Materials & Interfaces, 2023).

Target: T1, wild-strain SARS-CoV-2 spike protein RBD (SARS-CoV-2, UniProt P0DTC2)
T1 construct: also called S1 RBD; wild-type strain S1 RBD
Experiment: AFM single-molecule force spectroscopy
Settings: one partner purified

B1: cell-surface vimentin (CSV) on mouse embryonic fibroblasts mEF +/+ (natural protein)
chain: not shown
notes: also called extracellular Vim; native extracellular Vim; source: endogenous, on live mEF +/+ cells
- koff: 0.19 ± 0.07 s⁻¹
